Assay results reported in article PMC8050884.

Columns and labels:
[1] = molecular target: soluble trimeric SARS-CoV-2 spike protein ectodomain (residues 1-1211) with phage foldon trimerization motif, 6xHis tag and AviTag (SARS-CoV-2 | not stated) (UniProt P0DTC2); assay: negative stain electron microscopy
[2] = molecular target: SARS-CoV-2 spike trimer (aa 1-1208, furin site mutated, K986P/V987P) fused to human resistin (aa 23-108), FLAG-(His)6 (SARS-CoV-2 | human) (UniProt P0DTC2); assay: SEC-MALS; SEC-UPLC in PBS + 0.02% Tween-20 on Acquity BEH450 column coupled to MALS detector and refractometer; data not shown

Row | Substance | stoichiometry N [1] | stoichiometry N [2]
1 | soluble trimeric SARS-CoV-2 spike protein ectodomain (residues 1-1211) with phage foldon trimerization motif, 6xHis tag and AviTag (from UniProt P0DTC2 14-1211) | 3 | 
2 | SARS-CoV-2 spike trimer (aa 1-1208, furin site mutated, K986P/V987P) fused to human resistin (aa 23-108), FLAG-(His)6 (from UniProt P0DTC2;Q9HD89) |  | 3
